Reference: the Human Domainome abundance scans (Beltran et al. 2025)
± gives the uncertainty stated by the source.

B1: 3'-5' exoribonuclease 1, residues 65 to 114; numbered along this chain, Q8IV48 (parent)
chain: VYKEIAITNGCINRMSKEELRAKLSEFKLETRGVKDVLKKRLKNYYKKQK

Variants of: B1
Experiment: abundance fitness (aPCA) (normalised: wild type 0, dead -1); higher = more abundant; growth selection in yeast, the domain comes from the species named
Conditions: Homo sapiens

Variant | abundance fitness
VYKEIAITNGCINRMSKEELRAKLSEFKLETRGVKDVLKKRLHNYYKKQK | -0.729 ± 0.072
VYKEIAITNGCINRMSKEELRAKLSEFKLETRGVKDVLKKRLTNYYKKQK | -0.55 ± 0.058
VYKEIAITNGCINRMSKEELRAKLSEFKLETRGVKDVLKKRLCNYYKKQK | -0.823 ± 0.061
VYKEIAITNGCINRMSKEELRAKLSEFKLETRGVKDVLKKRLLNYYKKQK | -0.593 ± 0.042
VYKEIAITNGCINRMSKEELRAKLSEFKLETRGVKDVLKKRLGNYYKKQK | -0.846 ± 0.043
VYKEIAITNGCINRMSKEELRAKLSEFKLETRGVKDVLKKRLRNYYKKQK | -0.366 ± 0.036
VYKEIAITNGCINRMSKEELRAKLSEFKLETRGVKDVLKKRLDNYYKKQK | -0.737 ± 0.099
VYKEIAITNGCINRMSKEELRAKLSEFKLETRGVKDVLKKRLENYYKKQK | -0.712 ± 0.063
VYKEIAITNGCINRMSKEELRAKLSEFKLETRGVKDVLKKRLANYYKKQK | -0.579 ± 0.05
VYKEIAITNGCINRMSKEELRAKLSEFKLETRGVKDVLKKRLMNYYKKQK | -0.506 ± 0.063
VYKEIAITNGCINRMSKEELRAKLSEFKLETRGVKDVLKKRLNNYYKKQK | -0.39 ± 0.061
VYKEIAITNGCINRMSKEELRAKLSEFKLETRGVKDVLKKRLYNYYKKQK | -0.723 ± 0.083
VYKEIAITNGCINRMSKEELRAKLSEFKLETRGVKDVLKKRLQNYYKKQK | -0.469 ± 0.068
VYKEIAITNGCINRMSKEELRAKLSEFKLETRGVKDVLKKRLPNYYKKQK | -0.806 ± 0.063
VYKEIAITNGCINRMSKEELRAKLSEFKLETRGVKDVLKKRLINYYKKQK | -0.448 ± 0.074
VYKEIAITNGCINRMSKEELRAKLSEFKLETRGVKDVLKKRLFNYYKKQK | -0.755 ± 0.062
VYKEIAITNGCINRMSKEELRAKLSEFKLETRGVKDVLKKRLVNYYKKQK | -0.597 ± 0.047
VYKEIAITNGCINRMSKEELRAKLSEFKLETRGVKDVLKKRWKNYYKKQK | -0.888 ± 0.049
VYKEIAITNGCINRMSKEELRAKLSEFKLETRGVKDVLKKRCKNYYKKQK | -0.925 ± 0.067
VYKEIAITNGCINRMSKEELRAKLSEFKLETRGVKDVLKKRYKNYYKKQK | -0.969 ± 0.092
VYKEIAITNGCINRMSKEELRAKLSEFKLETRGVKDVLKKRAKNYYKKQK | -0.918 ± 0.053
VYKEIAITNGCINRMSKEELRAKLSEFKLETRGVKDVLKKRSKNYYKKQK | -0.511 ± 0.041
VYKEIAITNGCINRMSKEELRAKLSEFKLETRGVKDVLKKRPKNYYKKQK | -0.999 ± 0.081
VYKEIAITNGCINRMSKEELRAKLSEFKLETRGVKDVLKKRKKNYYKKQK | -1.04 ± 0.1
VYKEIAITNGCINRMSKEELRAKLSEFKLETRGVKDVLKKRMKNYYKKQK | -0.611 ± 0.064
VYKEIAITNGCINRMSKEELRAKLSEFKLETRGVKDVLKKRGKNYYKKQK | -0.871 ± 0.038

Variant | abundance fitness
VYKEIAITNGCINRMSKEELRAKLSEFKLETRGVKDVLKKRVKNYYKKQK | -0.754 ± 0.038
VYKEIAITNGCINRMSKEELRAKLSEFKLETRGVKDVLKKRFKNYYKKQK | -0.551 ± 0.057
VYKEIAITNGCINRMSKEELRAKLSEFKLETRGVKDVLKKRDKNYYKKQK | -0.961 ± 0.083
VYKEIAITNGCINRMSKEELRAKLSEFKLETRGVKDVLKKREKNYYKKQK | -0.892 ± 0.057
VYKEIAITNGCINRMSKEELRAKLSEFKLETRGVKDVLKKRQKNYYKKQK | -0.912 ± 0.071
VYKEIAITNGCINRMSKEELRAKLSEFKLETRGVKDVLKKRTKNYYKKQK | -1.1 ± 0.087
VYKEIAITNGCINRMSKEELRAKLSEFKLETRGVKDVLKKRNKNYYKKQK | -0.918 ± 0.1
VYKEIAITNGCINRMSKEELRAKLSEFKLETRGVKDVLKKRHKNYYKKQK | -0.907 ± 0.075
VYKEIAITNGCINRMSKEELRAKLSEFKLETRGVKDVLKIRLKNYYKKQK | -0.819 ± 0.07
VYKEIAITNGCINRMSKEELRAKLSEFKLETRGVKDVLKPRLKNYYKKQK | -0.951 ± 0.068
VYKEIAITNGCINRMSKEELRAKLSEFKLETRGVKDVLKHRLKNYYKKQK | -0.576 ± 0.056
VYKEIAITNGCINRMSKEELRAKLSEFKLETRGVKDVLKGRLKNYYKKQK | -0.777 ± 0.04
VYKEIAITNGCINRMSKEELRAKLSEFKLETRGVKDVLKYRLKNYYKKQK | -0.7 ± 0.059
VYKEIAITNGCINRMSKEELRAKLSEFKLETRGVKDVLKFRLKNYYKKQK | -0.992 ± 0.073
VYKEIAITNGCINRMSKEELRAKLSEFKLETRGVKDVLKWRLKNYYKKQK | -0.985 ± 0.062
VYKEIAITNGCINRMSKEELRAKLSEFKLETRGVKDVLKVRLKNYYKKQK | -0.669 ± 0.038
VYKEIAITNGCINRMSKEELRAKLSEFKLETRGVKDVLKSRLKNYYKKQK | -0.521 ± 0.039
VYKEIAITNGCINRMSKEELRAKLSEFKLETRGVKDVLKLRLKNYYKKQK | -0.608 ± 0.037
VYKEIAITNGCINRMSKEELRAKLSEFKLETRGVKDVLKNRLKNYYKKQK | -0.319 ± 0.067
VYKEIAITNGCINRMSKEELRAKLSEFKLETRGVKDVLKTRLKNYYKKQK | -0.398 ± 0.044
VYKEIAITNGCINRMSKEELRAKLSEFKLETRGVKDVLKMRLKNYYKKQK | -0.634 ± 0.057
VYKEIAITNGCINRMSKEELRAKLSEFKLETRGVKDVLKKRLKNMYKKQK | -0.643 ± 0.059
VYKEIAITNGCINRMSKEELRAKLSEFKLETRGVKDVLKKRLKNHYKKQK | -0.048 ± 0.06
VYKEIAITNGCINRMSKEELRAKLSEFKLETRGVKDVLKKRLKNCYKKQK | -0.399 ± 0.06
VYKEIAITNGCINRMSKEELRAKLSEFKLETRGVKDVLKKRLKNKYKKQK | -0.916 ± 0.081
VYKEIAITNGCINRMSKEELRAKLSEFKLETRGVKDVLKKRLKNRYKKQK | -0.878 ± 0.051

Variant | abundance fitness
VYKEIAITNGCINRMSKEELRAKLSEFKLETRGVKDVLKKRLKNNYKKQK | -0.64 ± 0.081
VYKEIAITNGCINRMSKEELRAKLSEFKLETRGVKDVLKKRLKNWYKKQK | -0.051 ± 0.048
VYKEIAITNGCINRMSKEELRAKLSEFKLETRGVKDVLKKRLKNLYKKQK | -0.637 ± 0.045
VYKEIAITNGCINRMSKEELRAKLSEFKLETRGVKDVLKKRLKNAYKKQK | -0.383 ± 0.038
VYKEIAITNGCINRMSKEELRAKLSEFKLETRGVKDVLKKRLKNVYKKQK | -0.8 ± 0.039
VYKEIAITNGCINRMSKEELRAKLSEFKLETRGVKDVLKKRLKNIYKKQK | -0.664 ± 0.08
VYKEIAITNGCINRMSKEELRAKLSEFKLETRGVKDVLKKRLKNSYKKQK | -0.279 ± 0.042
VYKEIAITNGCINRMSKEELRAKLSEFKLETRGVKDVLKKRLKNQYKKQK | -0.876 ± 0.081
VYKEIAITNGCINRMSKEELRAKLSEFKLETRGVKDVLKKRLKNGYKKQK | -0.891 ± 0.045
VYKEIAITNGCINRMSKEELRAKLSEFKLETRGVKDVLKKRLKNFYKKQK | -0.094 ± 0.076
VYKEIAITNGCINRMSKEELRAKLSEFKLETRGVKDVLKKRLKNPYKKQK | -0.995 ± 0.087
VYKEIAITNGCINRMSKEELRAKLSEFKLETRGVKDVLKKRLKNEYKKQK | -0.63 ± 0.048
VYKEIAITNGCINRMSKEELRAKLSEFKLETRGVKDVLKKRLKNDYKKQK | -0.954 ± 0.076
VYKEIAITNGCINRMSKEELRAKLSEFKLETRGVKDVLKKRLKNTYKKQK | -1 ± 0.065
VYKEIAITNGCINRMSKEELRAKLSEFKLETRGVKDVLKKRLKNYEKKQK | -0.703 ± 0.057
VYKEIAITNGCINRMSKEELRAKLSEFKLETRGVKDVLKKRLKNYFKKQK | 0.116 ± 0.06
VYKEIAITNGCINRMSKEELRAKLSEFKLETRGVKDVLKKRLKNYCKKQK | 0.066 ± 0.042
VYKEIAITNGCINRMSKEELRAKLSEFKLETRGVKDVLKKRLKNYGKKQK | -0.533 ± 0.035
VYKEIAITNGCINRMSKEELRAKLSEFKLETRGVKDVLKKRLKAYYKKQK | -0.021 ± 0.04
VYKEIAITNGCINRMSKEELRAKLSEFKLETRGVKDVLKKRLKRYYKKQK | 0.017 ± 0.038
VYKEIAITNGCINRMSKEELRAKLSEFKLETRGVKDVLKKRLKWYYKKQK | -0.376 ± 0.054
VYKEIAITNGCINRMSKEELRAKLSEFKLETRGVKDVLKKRLKEYYKKQK | -0.193 ± 0.053
VYKEIAITNGCINRMSKEELRAKLSEFKLETRGVKDVLKKRLKTYYKKQK | -0.086 ± 0.045
VYKEIAITNGCINRMSKEELRAKLSEFKLETRGVKDVLKKRLKQYYKKQK | -0.063 ± 0.046
VYKEIAITNGCINRMSKEELRAKLSEFKLETRGVKDVLKKRLKCYYKKQK | -0.211 ± 0.066
VYKEIAITNGCINRMSKEELRAKLSEFKLETRGVKDVLKKRLKVYYKKQK | -0.318 ± 0.039

Variant | abundance fitness
VYKEIAITNGCINRMSKEELRAKLSEFKLETRGVKDVLKKRLKMYYKKQK | -0.164 ± 0.048
VYKEIAITNGCINRMSKEELRAKLSEFKLETRGVKDVLKKRLKYYYKKQK | -0.27 ± 0.059
VYKEIAITNGCINRMSKEELRAKLSEFKLETRGVKDVLKKRLKHYYKKQK | -0.065 ± 0.053
VYKEIAITNGCINRMSKEELRAKLSEFKLETRGVKDVLKKRLKFYYKKQK | -0.306 ± 0.066
VYKEIAITNGCINRMSKEELRAKLSEFKLETRGVKDVLKKRLKSYYKKQK | -0.087 ± 0.04
VYKEIAITNGCINRMSKEELRAKLSEFKLETRGVKDVLKKRLKKYYKKQK | 0.05 ± 0.051
VYKEIAITNGCINRMSKEELRAKLSEFKLETRGVKDVLKKRLKPYYKKQK | -0.767 ± 0.054
VYKEIAITNGCINRMSKEELRAKLSEFKLETRGVKDVLKKRLKGYYKKQK | -0.158 ± 0.04
VYKEIAITNGCINRMSKEELRAKLSEFKLETRGVKDVLKKRLKLYYKKQK | -0.168 ± 0.036
VYKEIAITNGCINRMSKEELRAKLSEFKLETRGVKDVLKKNLKNYYKKQK | -0.895 ± 0.17
VYKEIAITNGCINRMSKEELRAKLSEFKLETRGVKDVLKKSLKNYYKKQK | -0.641 ± 0.044
VYKEIAITNGCINRMSKEELRAKLSEFKLETRGVKDVLKKWLKNYYKKQK | -0.975 ± 0.06
VYKEIAITNGCINRMSKEELRAKLSEFKLETRGVKDVLKKILKNYYKKQK | -0.865 ± 0.18
VYKEIAITNGCINRMSKEELRAKLSEFKLETRGVKDVLKKFLKNYYKKQK | -0.887 ± 0.18
VYKEIAITNGCINRMSKEELRAKLSEFKLETRGVKDVLKKHLKNYYKKQK | -1.02 ± 0.12
VYKEIAITNGCINRMSKEELRAKLSEFKLETRGVKDVLKKPLKNYYKKQK | -0.803 ± 0.063
VYKEIAITNGCINRMSKEELRAKLSEFKLETRGVKDVLKKQLKNYYKKQK | -0.992 ± 0.066
VYKEIAITNGCINRMSKEELRAKLSEFKLETRGVKDVLKKYLKNYYKKQK | -0.941 ± 0.12
VYKEIAITNGCINRMSKEELRAKLSEFKLETRGVKDVLKKALKNYYKKQK | -0.891 ± 0.046
VYKEIAITNGCINRMSKEELRAKLSEFKLETRGVKDVLKKMLKNYYKKQK | -0.803 ± 0.062
VYKEIAITNGCINRMSKEELRAKLSEFKLETRGVKDVLKKELKNYYKKQK | -1.02 ± 0.067
VYKEIAITNGCINRMSKEELRAKLSEFKLETRGVKDVLKKDLKNYYKKQK | -1.09 ± 0.15
VYKEIAITNGCINRMSKEELRAKLSEFKLETRGVKDVLKKCLKNYYKKQK | -1.01 ± 0.078
VYKEIAITNGCINRMSKEELRAKLSEFKLETRGVKDVLKKVLKNYYKKQK | -1.02 ± 0.052
VYKEIAITNGCINRMSKEELRAKLSEFKLETRGVKDVLKKTLKNYYKKQK | -0.963 ± 0.067
VYKEIAITNGCINRMSKEELRAKLSEFKLETRGVKDVLKKKLKNYYKKQK | -0.914 ± 0.089
